Measurements published in the supplement of paper PMC6757056.
± gives the standard deviation of the averaged measurements.

B1: library; a variant is named by its letters at N, in order (parent)
chain: GCUGUCACCGGAAUACCAGCAUCGUCUUGAUGCCCUUGGAAGUCCGGUCUGAUGAGUCCNNNNNGGACGAAACAGC

How the values were obtained:
[1] = variants of: B1; assay: FACS-Seq fitted mean relative fluorescence mCherry/BFP without ligand (log10 relative fluorescence); higher = higher reporter protein expression; conditions: HEK293T, ligand present: no
Method: (§1)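 Hammerhead (sTRSV) ribozyme switch libraries with a ligand aptamer grafted on stem I and a randomized N4-6 loop II, cloned into the 3' UTR of mCherry and transiently transfected into HEK293T cells; RNA-Seq 72 h post transfection with ligand added 1 h before transfection; RNA read count / plasmid DNA read count normalized to the non-cleaving sTRSVctl (x100), log10; sequences with >100 DNA reads. FACS-Seq: lentiviral library sorted into 6 bins after 48 h ligand, log-normal fit mean of mCherry/BFP scaled to controls. Printed sequences are partial switch sequences.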

[2] = variants of: B1; assay: normalized RNA/DNA level with ligand (relative to sTRSVctl = 100) (log10 (% of sTRSVctl)); higher = less ribozyme self-cleavage, higher mRNA level; conditions: ligand concentration (+) RNA-Seq: 5 mM, HEK293T, reporter: mCherry (pCS4076), ligand present: yes
Method: as §1

[3] = variants of: B1; assay: normalized RNA/DNA level without ligand (relative to sTRSVctl = 100) (log10 (% of sTRSVctl)); higher = less ribozyme self-cleavage, higher mRNA level; conditions: HEK293T, reporter: mCherry (pCS4076), ligand present: no
Method: as §1

[4] = variants of: B1; assay: FACS-Seq fitted mean relative fluorescence mCherry/BFP with ligand (log10 relative fluorescence); ligand concentration (+) FACS-Seq: 1 mM; higher = higher reporter protein expression; conditions: HEK293T, ligand present: yes
Method: as §1

Variant | FACS-Seq fitted mean (log10) [1] | normalized RNA/DNA level with ligand (log10) [2] | normalized RNA/DNA level without ligand (log10) [3] | FACS-Seq fitted mean (log10) [4]
UGAGC | 1.21 ± 0.082 | 1.9256 ± 8.8e-05 | 1.98 ± 0.13 | 1.24 ± 0.12
AUAUA | -0.278 ± 0.26 | 2.006 ± 0.015 | 1.75 ± 0.028 | 0.0109 ± 0.01
GUACU | 0.8686 ± 0.0017 | 2 ± 0.044 | 1.93 ± 0.08 | 0.97 ± 0.03
ACAUU | 1.04 ± 0.16 | 2 ± 0.036 | 1.85 ± 0.042 | 1.15 ± 0.18
GAAAA | 0.381 ± 0.0065 | 1.96 ± 0.033 | 1.3 ± 0.14 | 0.809 ± 0.014
UGUAC | 0.923 ± 0.082 | 1.98 ± 0.024 | 1.95 ± 0.045 | 0.851 ± 0.13
UCACC | -0.0671 ± 0.15 | 1.92 ± 0.022 | 1.93 ± 0.053 | 0.0211 ± 0.046
AUUGC | 1.19 ± 0.033 | 2.0706 ± 0.0016 | 2.01 ± 0.087 | 1.02 ± 0.1
AGGGC | 0.731 ± 0.092 | 1.95 ± 0.022 | 1.93 ± 0.094 | 0.756 ± 0.037
UAGCU | 1.23 ± 0.19 | 2.01 ± 0.048 | 1.93 ± 0.068 | 1.14 ± 0.05
AUGAG | 0.655 ± 0.014 | 1.914 ± 0.0079 | 1.812 ± 0.0077 | 0.868 ± 0.029
CCCUU | 1.13 ± 0.16 | 1.99 ± 0.035 | 1.89 ± 0.049 | 1.07 ± 0.036
UGGUA | 0.0996 ± 0.099 | 1.946 ± 0.011 | 1.28 ± 0.11 | 0.69 ± 0.042
AGCUC | 0.692 ± 0.15 | 2.04 ± 0.2 | 1.9 ± 0.046 | 0.565 ± 0.047
AUAGG | 0.526 ± 0.084 | 1.994 ± 0.0048 | 1.84 ± 0.068 | 0.441 ± 0.063
UAAGU | 0.651 ± 0.24 | 2.03 ± 0.044 | 1.86 ± 0.088 | 0.751 ± 0.013
UCGAC | 0.96 ± 0.048 | 1.9 ± 0.12 | 1.78 ± 0.059 | 0.965 ± 0.022
AACGU | 0.773 ± 0.075 | 1.965 ± 0.017 | 1.793 ± 0.011 | 0.854 ± 0.2

Variant | FACS-Seq fitted mean (log10) [1] | normalized RNA/DNA level with ligand (log10) [2] | normalized RNA/DNA level without ligand (log10) [3] | FACS-Seq fitted mean (log10) [4]
CCAGU | 0.937 ± 0.067 | 1.974 ± 0.0042 | 1.9 ± 0.12 | 0.929 ± 0.058
AUGAA | 0.317 ± 0.045 | 1.94 ± 0.04 | 1.52 ± 0.074 | 0.5036 ± 0.0038
GAUUG | 0.498 ± 0.059 | 1.98 ± 0.1 | 1.75 ± 0.12 | 0.711 ± 0.017
UUGAA | 0.273 ± 0.006 | 1.94 ± 0.08 | 1.29 ± 0.064 | 0.619 ± 0.026
GAUUU | 0.1728 ± 0.00021 | 2.05 ± 0.067 | 1.78 ± 0.12 | 0.28 ± 0.031
UCCCU | 0.877 ± 0.032 | 2.08 ± 0.12 | 1.97 ± 0.026 | 1.03 ± 0.11
UACCG | 1.2 ± 0.1 | 2.01 ± 0.067 | 2 ± 0.032 | 1.09 ± 0.086
CGUUC | 0.959 ± 0.048 | 1.8643 ± 0.00065 | 1.75 ± 0.07 | 0.949 ± 0.067
AAUCU | 0.634 ± 0.065 | 1.94 ± 0.026 | 1.87 ± 0.026 | 0.57 ± 0.049
CUCAA | 0.816 ± 0.072 | 1.99 ± 0.05 | 1.67 ± 0.022 | 0.914 ± 0.068
GCAGU | -0.266 ± 0.054 | 1.97 ± 0.12 | 1.774 ± 0.0085 | -0.0491 ± 0.075
CAUCC | 0.98 ± 0.04 | 2.04 ± 0.045 | 2 ± 0.12 | 1.162 ± 0.0037
AUGUA | 0.696 ± 0.018 | 1.97 ± 0.11 | 1.77 ± 0.046 | 0.908 ± 0.042
UCAUU | 0.822 ± 0.046 | 2.03 ± 0.045 | 1.815 ± 0.0057 | 0.906 ± 0.071
GUAUU | 0.754 ± 0.04 | 2.01 ± 0.053 | 1.88 ± 0.046 | 0.8044 ± 0.005
GACAU | 0.478 ± 0.063 | 2.04 ± 0.032 | 1.859 ± 0.0069 | 0.576 ± 0.07
UGACA | 0.298 ± 0.03 | 1.93 ± 0.051 | 1.52 ± 0.048 | 0.527 ± 0.05
AGGCU | 0.7841 ± 0.0051 | 1.96 ± 0.053 | 1.936 ± 0.007 | 0.847 ± 0.013
